Reference: the supplement of paper PMC12455559
± gives the standard deviation of the averaged measurements.

Tests used:
[1] = melting temperature (DSF); higher = more thermostable
Procedure, shortened: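 Values are melting temperatures from differential scanning fluorimetry. Candidate enzymes were expressed in E. coli C41(DE3), purified on nickel beads and freed by SUMO protease cleavage. In sealed PCR plates on a Bio-Rad CFX96, 45 μL enzyme (0 to 0.3 mg/mL) was combined with 5 μL 5X Sypro Orange. Fluorescence was recorded from 25 °C for 250 cycles, rising 0.3 °C per cycle at a ramp of 0.3 °C/s.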

[2] = purified protein yield per well (BCA); higher = higher soluble expression
Procedure, shortened: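 On an OT-2 robot, lysed cells were processed by binding protein to Ni-charged magnetic beads and releasing it with SUMO protease. Expression took place in E. coli C41(DE3), in 2 mL autoinduction cultures with 100 µg/mL kanamycin, for 2 h at 37 °C followed by 40 h at 18 °C. The Pierce Rapid Gold BCA kit was used to quantify purified protein yield in each well, with values under 25 ug (0.1 mg/mL) below the detection threshold.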

[3] = PET hydrolysis, aromatic products released after 48 h (umol product/mg enzyme); higher = more PET depolymerization activity
Procedure, shortened: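 Tagless, SUMO-cleaved candidate enzymes were purified on nickel beads, and 5 μg (50 μL) was added to 3.5 mg amorphous PET film or crystalline PET powder in 450 μL buffer. Buffers were 50 mM NaCitrate (pH 4.5, 5.5), 50 mM NaPhosphate (pH 6.5, 7.5) or glycine (pH 8.5). Sealed plates were incubated 48 h at 40 or 60 °C without shaking. PET hydrolysis activity is the aromatic product in the supernatant, read by absorbance at 260 and 280 nm against buffer blanks and expressed per mg enzyme.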

[4] = substrate: aFilm, 40 °C, pH 5.5
[5] = substrate: aFilm, 40 °C, pH 6.5
[6] = substrate: aFilm, 40 °C, pH 7.5
[7] = substrate: aFilm, 60 °C, pH 5.5
[8] = substrate: aFilm, 60 °C, pH 6.5
[9] = substrate: aFilm, 60 °C, pH 7.5
[10] = substrate: cryPow, 40 °C, pH 4.5
[11] = substrate: cryPow, 40 °C, pH 5.5
[12] = substrate: cryPow, 40 °C, pH 6.5
[13] = substrate: cryPow, 40 °C, pH 7.5
[14] = substrate: cryPow, 60 °C, pH 4.5
[15] = substrate: cryPow, 60 °C, pH 5.5
[16] = substrate: cryPow, 60 °C, pH 6.5
[17] = substrate: cryPow, 60 °C, pH 7.5
[18] = substrate: cryPow, 40 °C, pH 8.5
[19] = substrate: cryPow, 60 °C, pH 8.5

| Sequence | melting temperature [1] | purified protein yield per well [2] | PET hydrolysis ([3]; substrate: aFilm, 40 °C, pH 4.5) | PET hydrolysis [3, 4] | PET hydrolysis [3, 5] | PET hydrolysis [3, 6] | PET hydrolysis ([3]; substrate: aFilm, 60 °C, pH 4.5) | PET hydrolysis [3, 7] | PET hydrolysis [3, 8] | PET hydrolysis [3, 9] | PET hydrolysis [3, 10] | PET hydrolysis [3, 11] | PET hydrolysis [3, 12] | PET hydrolysis [3, 13] | PET hydrolysis [3, 14] | PET hydrolysis [3, 15] | PET hydrolysis [3, 16] | PET hydrolysis [3, 17] | PET hydrolysis [3, 18] | PET hydrolysis [3, 19] | PET hydrolysis ([3]; substrate: aFilm, 40 °C, pH 8.5) | PET hydrolysis ([3]; substrate: aFilm, 60 °C, pH 8.5) |
| --- | --- | --- | --- | --- | --- | --- | --- | --- | --- | --- | --- | --- | --- | --- | --- | --- | --- | --- | --- | --- | --- | --- |
| ANPYERGPNPTQALLEARSGPFSVSSERAWRLGSDGFGGGTIYYPRENNTYGAVAISPGYTGTQASVAWLGERIASHGFVVITIDTNTTLDQPDSRADQLEAALDHMVDGASSTVRSRIDRNRLAVMGHSMGGGGTLRLASQRPDLKAAIPLTPWHLNKSWSNVQVPTLIIGADLDTIAPVLTHAEPFYNSIPTSTRKAYLELDGATHFAPNITNSTIGMYSVAWLKRFVDEDTRYTQFLCPGPRTGLFSDVEEYRSTCPF [TEP014] | 54.1 C | 267 µg | < 3 | < 3 | < 3 | < 3 | < 3 | < 3 | < 3 | < 3 | < 3 | < 3 | 1.5 ± 2.1 | 4.5 ± 0.71 | < 3 | < 3 | < 3 | < 3 |  |  |  |  |
| ALNPYQRGPDPTDALLEAPRGPFATASTTVSRLSVSGFGGGVIYYPTDTSQGTFGGIAISPGYTASWSSLDWLGPRIASHGFVVIGIDTLSRYDQPASRGRQLLAALDYLTQRSSVRGRVDASRLAVAGHSMGGGGSLEAADSRPSLQAAVPLAPWHTTKNWSGVRVPTMIIGGESDSVAPVSTHSELFYASIPASSEKAYLELNGASHFFPNTTNTTMAKSMVSWLKRFVDDDVRYDPFLCPGPDGSAVEEYRQTCPLS [TEP140] | 51.4 C | 36.5 µg |  |  |  |  |  |  |  |  | < 3 | < 3 | < 3 | 4 |  |  |  |  |  |  |  |  |
| ADNPYERGPDPTERSIEAARGPFGVSTERVGSLGVSDFGGATIYHPTDRSQTYGAIAISPGFTAGWTSLSWLGERLASQGFVVIGIDTITRLDQPGSRGRQLLAALDYATTRSNARALIDAQRLAVAGHSMGGGGTLEAAAERPSLKAAIPLAPWNLDKSWAEVRTPTLIIGGESDNIAAVNTHSIPFYNSLSNAREKAYMEIDNGTHFFPNTANTLMAKYMISWMKRYIDDDTRYEQFLCPPPDDRGISEYRHTCPGS [DP088] | 43.9 C | 70 µg |  |  |  |  |  |  |  |  |  | < 3 | < 3 | < 3 |  | < 3 | < 3 | < 3 | < 3 | < 3 |  |  |
| SSCDIMGDVNEDSEVDIVDALLIAQAYVGLNPTIEYHPCADVNCSGSVDIVDALLIAQKYVGLISEFSCQNTPEPTIEPTSAPVLNIACGSSSALGIFQEDQYYSGGSTHNNSNTIDVSRITVNTPPTGLFNNERYGEMSYTIPDLSAGDTYTVTLYFAETYLTSPGSRLFNVSINSTEVLTNFDIYAAAGGQNNGISQSFITTANTSGRIVIDFTAVTENPKINGISIVTGIGPTNIPTPEPTPTPENSGFQRGPDPSLESISANRGTFATAELTFPAGNGFGGGFIYYPTDTSLGTWAAVAICPGGSAKFANEETWMGHWLASFGFVVIGMETNNTYDYPESRGTQLLAALDYLTQKSAVKDRVDPDRLMVMGHSMGGGGAFHAAMARSSLKTMVALAPWFNSSLTSPSMTNLHMPAMIISARNDTVVTPASCSAIYDKIPTTTQRAWVELAADDHLGFTKSNPTEMRVLIPWMKIFLDNDERYVQFLCPIANSSNISVYKNSCPFVP [TEP039] | 50.8 C | 34.3 µg |  |  |  |  |  |  |  |  | < 3 | < 3 | < 3 | < 3 |  |  |  |  |  |  |  |  |
| ADNPYQRGPDPTRTSVTAVNGPFANTSVSVPTGYGFNGGRIYYPTDTSQGTFGAIAISPGYTALFSAELAWMGPWLASHGFVVIGIETNSRNDFDTARGTQLLAALDYLTQQSPVRDRVDPTRLAVAGHSMGGGGALSAAIRRSSLKAVVGIAPYSPSSNLANDRVPTMIFSGQADTVVTPSYATGLYNSLPSTTESVYLEVAGADHGFMVGRSNPVMVRTMLPFVKMFVDNDARYSQFLCPLLDNSGVVTYRSTCPLLPSTPTTPTPTPTDPTTPTPTPTVPPGSASQIVGTQSGRCIDVPNASRTNGTRVQLYDCNRQTNQAWTYTSGKQLQVYGNMCLDAAGTGNGAAVQIYSCHSQTNQQWNVNSNGTISNVQSGRCLDVWSTANGAQIQLYDCHSQTNQQFRVTPLA [ESM062] | 62.5 C | 135 µg |  |  |  |  |  |  |  |  | 11 | 27 | 33 | 24 | < 3 | 4 | 4 | < 3 |  |  |  |  |
| ADNPYERGPAPTAASIAADRGPFATAQVTVPRGNGFGGGVIYYPTDTSQGTFGAIAIAPGFGTAWSYYAWQGPRLASFGFVVIGIETNTLNDYADARATQLLAALDYLVNSSPVRDRVDRNRLAVGGHSMGGGGAILAANQRPSLLTAVGQAPYVPDGSLATIKSPTIIFAGQADGTVTPQYAQNAYNTIPSSVERAYVEIANEGHGFPAGGGGGNSGAFARTMMIWMKLFIDKDTRYAPFLCPSLSNANGISKYMASCPLDPPGGGPTASPTASPTVSPTVSPSGTPPATSAIRGVGSGRCLDVNGASQANGAQAQIWDCNGQNNQKWTTTSAGELRVYGNKCLDVNGGGTADGTSVIIWDCNGQNNQKWRLNTDGTITAVGANKCLDVSGAGTANGTKVQIWTCNGQNNQKWTRT [ESM038] | 68.8 C | 190 µg |  |  |  |  |  |  |  |  | 4 | 10 | 16 | 19 | < 3 | < 3 | 4 | 6 |  |  |  |  |
| AGFERGPDPSTSTLDAARGPFAVAEERVYSWRASGFGGGDIYYPTTTSEGTFGVVAVAPGYTAGRSSMAWLASRIASHGFVVINIDTLTRSDQPASRGRQLLAALDHVTSSSGVRDRVDASRQAVVGHSMGGGGALEAASSRPALQAAVPLTPWNLTKRWSSLQVPTFIVGAENDSVASVRTHAEPFYESLPAALPKAYLELNNASHFAPNTTNSTIGRYTVAWLKRYVDDDLRYSQFLCPPPPPSSAIEEFRATC [DP087] | 44.2 C | 208 µg |  | < 3 | < 3 | < 3 |  | < 3 | < 3 | < 3 |  | < 3 | < 3 | < 3 |  | < 3 | < 3 | < 3 | < 3 | < 3 | < 3 | < 3 |
